Here are results for four molecules from US20220323580A1 (Janssen / Centocor, published 2022).

Assay [1] concerns the target T1, recombinant human TNFα (human, UniProt P01375 77-233, 125I-labeled in the receptor blocking assay).
T1 construct: It is not tied to the protein used in the assays, so it is not used here; also called huTNFα; tumor necrosis factor alpha
As to the kind of experiment: competition radioligand assay: mAb in hybridoma supernatant preincubated with 5 ng/ml 125I-TNFα, then cpm bound to plate-coated p55-sf2 counted; blocked partner p55-sf2. The procedure:
Each sample was tested in duplicate. The results shown are representative of two independent experiments.
(§1) 50:1 of p55-sf2 at 0.5:g/ml in PBS was added to Optiplates to coat the wells during a one-hour incubation at 37° C. Serial dilutions of the eight TNV cell supernatants were prepared in 96-well round-bottom plates using PBS/0.1% BSA as diluent. […] The mixture was preincubated for one hour at RT. […] After 2 hrs at RT, Optiplates were washed three times with PBS-Tween. […] of Microscint-20 was added and the cpm bound determined using the TopCount […].

Assay [2] addresses T1, recombinant human TNFα. Kind of assay: cell-based or functional assay.
In assay [3] the target is T1, recombinant human TNFα. As to the kind of experiment: competition: 125I-TNFα binding to plate-coated p55-sf2, hybridoma supernatant. How it is done: as §1
The concentrations of the TNV mAbs in their respective cell supernatants were first determined by standard ELISA analysis for human IgG.

B1: TNV15 (antibody, human IgG1, V domains shown)
VH: QVQLVESGGGVVQPGRSLRLSCAASGFTFSSYAMHWVRQAPGKGLEWVAFILYDGSNKKYADSVKGRFTISRDNSKNALYLQMNSLRAEDTAVYYCARDRGVSAGGNYYYYGMDVWGQGTTVTVSS
VL: EIVLTQSPATLSLSPGERATLSCRASQSVSSYLAWYQQKPGQAPRLLIYDASNRATGIPARFSGSGSGTDFTLTISSLEPEDFAVYYCQQRSNWPPFTFGPGTKVDIK
notes: Totally human IgG1 kappa mAb from the GenTNV fusion, tested as hybridoma supernatant; also called GenTNV15.28.11; C415A
Regarding B1, the “IC50 (read off the curve)” value in the assay with recombinant human TNFα [1] is around 4 ng/mL.

B2: TNV196 (antibody, human IgG1, V domains shown)
VH: QVQLVESGGGVVQPGRSLRLSCAASGFTFSSYAMHWVRQAPGKGLEWVAFISYDGSNKKSADSVKGRFTVSRDNSKNTLFLQMNSLRAEDTAVFYCARDRGIGAGGNYYYYGMDVWGQGTTVTVSS
VL: EIVLTQSPATLSLSPGERATLSCRASQSVYSYLAWYQQKPGQAPRLLIYDASNRATGIPARFSGSGSGTDFTLTISSLEPEDFAVYYCQQRSNWPPFTFGPGTKVDIK
notes: Totally human IgG1 kappa mAb from the GenTNV fusion, tested as hybridoma supernatant; also called GenTNV196.9.1; C421A
With B2, in the assay with recombinant human TNFα [2], the “neutralizing TNFα bioactivity” value was 4 fold (vs TNV14). In addition, in the assay with recombinant human TNFα [1], the “IC50 (read off the curve)” value is around 4 ng/mL.

B3: TNV148 (antibody, V domains shown)
VH: QVQLVESGGGVVQPGRSLRLSCAASGFIFSSYAMHWVRQAPGNGLEWVAFMSYDGSNKKYADSVKGRFTISRDNPKNTLYLQMNSLRAEDTAVYYCARDRGIAAGGNYYYYGMDVWGQGTTVTVSS
VL: EIVLTQSPATLSLSPGERATLSCRASQSVYSYLAWYQQKPGQAPRLLIYDASNRATGIPARFSGSGSGTDFTLTISSLEPEDFAVYYCQQRSNWPPFTFGPGTKVDIK
notes: also called GenTNV148.26.12; C420A
In the case of B3, the “neutralizing TNFα bioactivity” value with recombinant human TNFα [2] was 4 fold (vs TNV14). In addition, in the assay with recombinant human TNFα [1], the “IC50 (read off the curve)” value was around 4 ng/mL. For the same molecule, the “fold better at blocking TNF binding (vs TNV118 and TNV14)” value with recombinant human TNFα [3] is around 4 fold.

B4: TNV86 (antibody, V domains shown)
VH: QVQLVESGGGVVQPGRSLRLSCAASGFIFSSYAMHWVRQAPGNGLEWVAFMSYDGSNKKYADSVKGRFTISRDNPKNTLYLQMNSLRAEDTAVYYCARDRGIAAGGNYYYYGMDVWGQGTTVTVSS
VL: EIVLTQSPATLSLSPGERATLSCRASQSVYSYLAWYQQKPGQAPRLLIYDASNRATGIPARFSGSGSGTDFTLTISSLEPEDFAVYYCQQRSNWPPFTFGPGTKVDIK
notes: also called GenTNV86.14.34; C417A
As for B4, in the assay with recombinant human TNFα [3], the “fold better at blocking TNF binding (vs TNV118 and TNV14)” value is around 4 fold.
